Experimental data: patent US9320760B2, “Compositions and methods of use of compounds to increase cancer patient survival time” (BioNumerik Pharmaceuticals, Inc., priority 2008, dated 2016)

Substrate: O=S(=O)(O)CCSSCCS(=O)(=O)O
Experiment: purified protein, by the assay type
Details: pH 7.0; 25.0 °C

B1: Thioredoxin Reductase + Thioredoxin (Bos taurus) (protein)
chain: MVKQIESKYAFQEALNSAGEKLVVVDFSATWCGPCKMIKPFFHSLSEKYSNVVFLEVDVDDCQDVAAECEVKCMPTFQFFKKGQKVGEFSGANKEKLEATINELI
  Km: 72 µM
